This note sets out measurements from US20250243279A1 (published 2025).

Experiment [1] deals with T1, MICA (human, UniProt Q29983 24-383).
T1 chain: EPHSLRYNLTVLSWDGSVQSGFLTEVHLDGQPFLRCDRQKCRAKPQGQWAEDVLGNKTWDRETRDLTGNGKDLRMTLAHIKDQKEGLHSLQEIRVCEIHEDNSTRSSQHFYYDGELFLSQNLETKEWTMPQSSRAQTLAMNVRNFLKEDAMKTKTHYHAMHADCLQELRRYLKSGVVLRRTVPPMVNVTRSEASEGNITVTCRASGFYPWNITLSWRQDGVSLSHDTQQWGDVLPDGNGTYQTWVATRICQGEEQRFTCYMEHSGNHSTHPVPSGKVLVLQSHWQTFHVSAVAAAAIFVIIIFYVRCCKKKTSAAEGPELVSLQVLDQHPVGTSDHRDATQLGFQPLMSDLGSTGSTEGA
As to the kind of experiment: Carterra LSA SPR.

The target of experiment [2] is T2, MICB (human, UniProt Q29980 23-383).
T2 chain: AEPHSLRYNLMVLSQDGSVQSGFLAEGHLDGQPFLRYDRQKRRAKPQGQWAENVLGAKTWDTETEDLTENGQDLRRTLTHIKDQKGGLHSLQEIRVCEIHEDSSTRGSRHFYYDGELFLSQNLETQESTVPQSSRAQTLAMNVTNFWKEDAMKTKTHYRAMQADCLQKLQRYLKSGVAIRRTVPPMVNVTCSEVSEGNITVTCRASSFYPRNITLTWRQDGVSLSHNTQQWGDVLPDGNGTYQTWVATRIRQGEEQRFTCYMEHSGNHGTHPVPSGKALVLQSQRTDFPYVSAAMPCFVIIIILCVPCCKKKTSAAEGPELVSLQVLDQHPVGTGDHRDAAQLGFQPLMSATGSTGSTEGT
Briefly: Carterra LSA SPR.

For experiment [3], the target named is CD16 (UniProt P08637 17-208).
Experiment [4] concerns the target cynoMICA. Briefly: Carterra LSA SPR.

CD16, sequence (P08637 17-208): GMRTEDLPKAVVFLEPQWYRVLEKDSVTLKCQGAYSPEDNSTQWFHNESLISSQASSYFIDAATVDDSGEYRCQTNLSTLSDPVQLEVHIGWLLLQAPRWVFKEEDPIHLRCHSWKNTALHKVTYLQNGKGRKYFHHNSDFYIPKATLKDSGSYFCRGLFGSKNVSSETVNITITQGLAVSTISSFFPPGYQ

B1: 2E12 (antibody, V domains shown)
VH: QVQLQQSGAELVRPGTSVKVSCKASGYAFTNYLIEWVKQRPGQGLEWIGGINPGSGSTNYNEKFKGKATLTADKSSSTAYMQLSTLTFDDSAVYFCARLGGNYVDYWGQGTTLTVSS
VL: DIQMTQSPASLSASVGETVTITCRASGNIHNYLAWYQQKQGKSPQLLVYNAKTLADGVPSRFSGSGSGTQYSLKINSLQPEDFGSYYCQHFWSTPRTFGGGTKLEIK
Take B1: the Kd came to 16.7 nM in experiment [1] and 4.68 nM in experiment [2].

B2: 2F7 (antibody, V domains shown)
VH: QVHLKQSGAELVRPGASVKLSCKASGYTFTDYYIDWMNQRPGQGLEWIARIYPGSGNSYYNEKFKGKATLTAEKSASTAHMQLSSLTSEDSAVYFCAREGPTGVAPHWYFDVWGTGTTVTVSS
VL: DIVMSQSPSSLSSYLGDRVTISCRASQDIGNYLNWYQQKPDGTVKLLIYSTSRLHSGVPSRFSGSGSGTDYSLTISNLEQEDVATYFCQQGNTLPWTFGGGTKLEIK
With B2, the Kd in experiment [1] amounted to 42.4 nM; in experiment [2], 9.77 nM.

B3: XENP41023 (antibody)
heavy: EVQLLESGGGLVQPGGSLRLSCAVSGFSLSSYGVIWVRQAPGKGLEYVSWVSSGGSTNYASSVKGRFTISRDTSKNTVYLQMNSLRAEDTAVYFCARGATNSGTDIWGPGTLVTVSSASTKGPSVFPLAPSSKSTSGGTAALGCLVKDYFPEPVTVSWNSGALTSGVHTFPAVLQSSGLYSLSSVVTVPSSSLGTQTYICNVNHKPSDTKVDKKVEPKSCDKTHTCPPCPAPELLGGPDVFLFPPKPKDTLMISRTPEVTCVVVDVSHEDPEVKFNWYVDGVEVHNAKTKPREEEYNSTYRVVSVLTVLHQDWLNGKEYKCKVSNKALPAPIEKTISKAKGQPREPQVYTLPPSREEMTKNQVSLTCDVSGFYPSDIAVEWESDGQPENNYKTTPPVLDSDGSFFLYSKLTVDKSRWEQGDVFSCSVMHEALHNHYTQKSLSLSPGK
scFv-Fc: EVQLLESGGGLVQPGGSLRLSCAVSGFSLSSYGVIWVRQAPGKGLEYVSWVSSGGSTNYASSVKGRFTISRDTSKNTVYLQMNSLRAEDTAVYFCARGATNSGTDIWGPGTLVTVSSGKPGSGKPGSGKPGSGKPGSDIVMTQSPSSLSASVGDRVTITCRASQSINSWLSWYQQKPGKPPKLLIYGASNLASGVPSRFKGSGSGTDFTLTISSLQPEDFATYYCQNNYGIIAAGATFGGGTKVEIKEPKSSDKTHTCPPCPAPELLGGPDVFLFPPKPKDTLMISRTPEVTCVVVDVSHEDPEVKFNWYVDGVEVHNAKTKPREEQYNSTYRVVSVLTVLHQDWLNGKEYKCKVSNKALPAPIEKTISKAKGQPREPQVYTLPPSREQMTKNQVKLTCLVKGFYPSDIAVEWESNGQPENNYKTTPPVLDSDGSFFLYSKLTVDKSRWQQGNVFSCSVMHEALHNHYTQKSLSLSPGK
light: DIVMTQSPSSLSASVGDRVTITCRASQSINSWLSWYQQKPGKPPKLLIYGASNLASGVPSRFKGSGSGTDFTLTISSLQPEDFATYYCQNNYGIIAAGATFGGGTKVEIKRTVAAPSVFIFPPSDEQLKSGTASVVCLLNNFYPREAKVQWKVDNALQSGNSQESVTEQDSKDSTYSLSSTLTLSKADYEKHKVYACEVTHQGLSSPVTKSFNRGEC
B3 showed a Kd in experiment [3] of 102 nM.

B4: XENP41024 (antibody)
heavy: EVQLLESGGGLVQPGGSLRLSCAVSGFSLSSYGVIWVRQAPGKGLEYVSWVSSGGSTNYASSVKGRFTISRDTSKNTVYLQMNSLRAEDTAVYFCARGATNSGTDIWGPGTLVTVSSASTKGPSVFPLAPSSKSTSGGTAALGCLVKDYFPEPVTVSWNSGALTSGVHTFPAVLQSSGLYSLSSVVTVPSSSLGTQTYICNVNHKPSDTKVDKKVEPKSCDKTHTCPPCPAPELLGGPSVFLFPPKPKDTLMISRTPEVTCVVVDVSHEDPEVKFNWYVDGVEVHNAKTKPREEEYNSTYRVVSVLTVLHQDWLNGKEYKCKVSNKALPAPEEKTISKAKGQPREPQVYTLPPSREEMTKNQVSLTCDVSGFYPSDIAVEWESDGQPENNYKTTPPVLDSDGSFFLYSKLTVDKSRWEQGDVFSCSVMHEALHNHYTQKSLSLSPGK
scFv-Fc: EVQLLESGGGLVQPGGSLRLSCAVSGFSLSSYGVIWVRQAPGKGLEYVSWVSSGGSTNYASSVKGRFTISRDTSKNTVYLQMNSLRAEDTAVYFCARGATNSGTDIWGPGTLVTVSSGKPGSGKPGSGKPGSGKPGSDIVMTQSPSSLSASVGDRVTITCRASQSINSWLSWYQQKPGKPPKLLIYGASNLASGVPSRFKGSGSGTDFTLTISSLQPEDFATYYCQNNYGIIAAGATFGGGTKVEIKEPKSSDKTHTCPPCPAPELLGGPSVFLFPPKPKDTLMISRTPEVTCVVVDVSHEDPEVKFNWYVDGVEVHNAKTKPREEQYNSTYRVVSVLTVLHQDWLNGKEYKCKVSNKALPAPEEKTISKAKGQPREPQVYTLPPSREQMTKNQVKLTCLVKGFYPSDIAVEWESNGQPENNYKTTPPVLDSDGSFFLYSKLTVDKSRWQQGNVFSCSVMHEALHNHYTQKSLSLSPGK
light: DIVMTQSPSSLSASVGDRVTITCRASQSINSWLSWYQQKPGKPPKLLIYGASNLASGVPSRFKGSGSGTDFTLTISSLQPEDFATYYCQNNYGIIAAGATFGGGTKVEIKRTVAAPSVFIFPPSDEQLKSGTASVVCLLNNFYPREAKVQWKVDNALQSGNSQESVTEQDSKDSTYSLSSTLTLSKADYEKHKVYACEVTHQGLSSPVTKSFNRGEC
Take B4: binding in experiment [3] was put at a Kd of 120 nM.

B5: 2E5 (antibody, V domains shown)
VH: EVKLVESGGGLVQPGGSLKLSCATSGFTFSDYYMFWVRQTPEKRLEWVAYISEGGGSTYYPDTIKGRFTISRDNAKNTLYLQMSRLRSEDTAMYYCVRQRGAYNRYDDGRGFAYWGQGTLVTVSA
VL: DVLMTQTPLSLPVSLGDQASISCRSSQSIVHSNGNTYLEWYLQKPGQSPKLLIYKVSNRFSGVPDRLSGSGSGTDFTLKISRGEAEDLGVYYCFQGSHVPWTFGGGTKLEIK
Turning to B5, the Kd in experiment [1] came to 0.599 nM; in experiment [2], 0.807 nM.

B6: D94837_1E11_1 [MICA/B]_H0_D94837_1E11_1 [MICA/B]_L0 (antibody, V domains shown)
VH: EIQLQQSGPELVKPGASVKVSCKASGYAFTSYNMYWVKQSHGKSLEWIGYIDPYNGGTIYNQKFKGKATLTVDKSSSTAYMLLNSLTSEDSAVYYCARVGDAYPFAYWGQGTLVTVSA
VL: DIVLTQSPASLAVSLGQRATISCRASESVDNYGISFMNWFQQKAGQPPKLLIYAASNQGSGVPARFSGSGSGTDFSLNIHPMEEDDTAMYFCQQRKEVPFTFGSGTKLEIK
On to B6, for which the Kd came out at 40.3 nM in experiment [1] and 52.8 nM in experiment [2].

B7: 1E11-1 (antibody, V domains shown)
VH: EIQLQQSGPELVKPGASVKVSCKASGYAFTSYNMYWVKQSHGKSLEWIGYIDPYNGGTIYNQKFKGKATLTVDKSSSTAYMLLNSLTSEDSAVYYCARVGDAYPFAYWGQGTLVTVSA
VL: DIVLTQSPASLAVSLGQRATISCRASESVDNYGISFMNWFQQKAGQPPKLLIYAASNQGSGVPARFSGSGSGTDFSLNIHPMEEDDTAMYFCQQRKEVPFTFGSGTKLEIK
In turn, B7 came in with a Kd in experiment [4] of 19.6 nM.

B8: D103388_1C7 [MICA/B]_H0_D103388_1C7 [MICA/B]_L0 (antibody, V domains shown)
VH: QVQLRQSGPGLGQPSQSLSITCTVFGFSLTNYGVHWVRQSPGKGLEWLGMIWNDGFTDFNAAFISRLSISKDNSKSQVFFKMNSLQPSDTAIYYCASPYFHYAMDYWGQGTSVTVSS
VL: QIVLTQSPAIMSASLGERVTMTCTASSSVSSSYLHWYQQKPGSSPKLWIYSTSNLASGVPARFSGSGSGTSYSLTISSMEAEDAATYYCHQYHRSPFTFGSGTKLEIK
For B8, the equilibrium dissociation constant (Kd) was found to be 22.9 nM in experiment [1] and 2.27 nM in experiment [2].

B9: 1C7 (antibody, V domains shown)
VH: QVQLRQSGPGLGQPSQSLSITCTVFGFSLTNYGVHWVRQSPGKGLEWLGMIWNDGFTDFNAAFISRLSISKDNSKSQVFFKMNSLQPSDTAIYYCASPYFHYAMDYWGQGTSVTVSS
VL: QIVLTQSPAIMSASLGERVTMTCTASSSVSSSYLHWYQQKPGSSPKLWIYSTSNLASGVPARFSGSGSGTSYSLTISSMEAEDAATYYCHQYHRSPFTFGSGTKLEIK
B9 returned a Kd in experiment [4] of 23.8 nM.

B10: D99136_2C11 [MICA/B]_H0_D99136_2C11 [MICA/B]_L0 (antibody, V domains shown)
VH: DVQLQESGPGLVKPSQSLSLTCSVTGYSITSGYNWDWIRHSPGNKLEWMGYISYDGSTNYNPSLKNRISITRDTSKNQFFLKLNSVTTEDTATYYCASSYYRYFDYWGQGTTLTVSS
VL: DVQMTQTTSSLSASLGDRVTISCSASQGISNYLNWFQQKPDGTVKLLIYYTSSLHSGVPSRFSGSGSGTDYSLTISNLEPEDIATYYCQQYTKLPWTFGGGTELEIK
On to B10, for which the Kd stood at 17.8 nM in experiment [1] and 2.59 nM in experiment [2].

In general, Kd refers to the free concentration of one partner at which half of the binding sites on the other are occupied at equilibrium, for simple one-to-one binding. Low values mean a tighter complex, high ones a looser complex.
